Where only a bound is given, the exact number is not on record here.

For the experiment, the target named is Biotinylated FcγRIIIa (human) (UniProt P08637). Nature of the experiment: BLI. Background: In BLI a coated tip is dipped into the sample, and binding shifts an interference pattern.
Sequence of UniProt P08637 (P08637 21-186): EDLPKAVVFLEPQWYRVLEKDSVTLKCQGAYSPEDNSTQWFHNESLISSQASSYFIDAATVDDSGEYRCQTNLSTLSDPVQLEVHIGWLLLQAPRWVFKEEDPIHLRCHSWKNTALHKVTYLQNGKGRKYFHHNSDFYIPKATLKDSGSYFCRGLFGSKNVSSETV

As for “Mogamulizumab, anti-CCR4 humanized IgG1 (antibody)”, the fold larger kon than Ada is 3.5 fold, the fold larger kon than Rtx was 4 fold, the fold lower KD than Ada is over 20 fold and the fold lower KD than Rtx was over 20 fold. Besides, the fold smaller koff than Ada came to 6 fold and the fold smaller koff than Rtx turned out to be 5 fold.
